B1: SEQ ID NO: 40 (S19 hit, pIX phage) (peptide)
chain: GGGAFCRLDFNQWLTCLVGGGSGGSGG
notes: pIX phagemid display; not shown: M13 phage coat protein pIX (MSVL...)
B2: P180 phage (S19, pIX) (peptide)
chain: GGGMICYLVDSGNIICYKGGGSGGSGG
notes: pIX phagemid display; also called PP180; not shown: M13 phage coat protein pIX (MSVL...)
B3: SEQ ID NO: 41 (S19 hit, pIX phage) (peptide)
chain: GGGCDCREAVSASLVCRYGGGSGGSGG
notes: as for B1
B4: SEQ ID NO: 38 (S19 hit, pIX phage) (peptide)
chain: GGGYDCMIRADGSLICWCGGGSGGSGG
notes: as for B1
B5: P179 phage (S19, pIX) (peptide)
chain: GGGGPCVLIRDYYLLCLEGGGSGGSGG
notes: pIX phagemid display; also called PP179; not shown: M13 phage coat protein pIX (MSVL...)
B6: P175 phage (S15, pIX) (peptide)
chain: GGGLPDDSLPELICKVRGGGGSGGSGG
notes: pIX phagemid display; also called PP175; not shown: M13 phage coat protein pIX (MSVL...)
B7: SEQ ID NO: 26 (S18 hit, pIX phage) (peptide)
chain: GGGKHCILFEKTVYCAKGGGSGGSGG
notes: as for B1
B8: P173 phage (S18, pIX) (peptide)
chain: GGGTDCVIFGLETYCLRGGGSGGSGG
notes: pIX phagemid display; also called PP173; not shown: M13 phage coat protein pIX (MSVL...)
B9: SEQ ID NO: 32 (S18 hit, pIX phage) (peptide)
chain: GGGSDCVLFGSKLFCSAGGGSGGSGG
notes: as for B1
B10: SEQ ID NO: 28 (S18 hit, pIX phage) (peptide)
chain: GGGTDCIRFGVLWYCLVGGGSGGSGG
notes: as for B1
B11: SEQ ID NO: 25 (S18 hit, pIX phage) (peptide)
chain: GGGRDCIIFDKTVYCVIGGGSGGSGG
notes: as for B1
B12: SEQ ID NO: 23 (S18 hit, pIX phage) (peptide)
chain: GGGAGCIAFVDVVYCARGGGSGGSGG
notes: as for B1
B13: SEQ ID NO: 34 (S18 hit, pIX phage) (peptide)
chain: GGGYDCVSFGAVAYCPQGGGSGGSGG
notes: as for B1
B14: SEQ ID NO: 29 (S18 hit, pIX phage) (peptide)
chain: GGGRACITFGKVVYCEVGGGSGGSGG
notes: as for B1
B15: SEQ ID NO: 35 (S18 hit, pIX phage) (peptide)
chain: GGGRGCVVFGDNIYCIVGGGSGGSGG
notes: as for B1
B16: SEQ ID NO: 33 (S18 hit, pIX phage) (peptide)
chain: GGGTDCVRFGETIYCIVGGGSGGSGG
notes: as for B1
B17: SEQ ID NO: 30 (S18 hit, pIX phage) (peptide)
chain: GGGAYCSFVAGDLVCQVGGGSGGSGG
notes: as for B1
B18: SEQ ID NO: 27 (S18 hit, pIX phage) (peptide)
chain: GGGDSCIQFANLLYCAIGGGSGGSGG
notes: as for B1
B19: SEQ ID NO: 24 (S18 hit, pIX phage) (peptide)
chain: GGGAKCIAFGNSVYCLNGGGSGGSGG
notes: as for B1
B20: P190 phage, pIX display (190-phagemid) (peptide)
chain: GGGDPCTWEVWGRECLQGGGSGGSGG
notes: pIX phagemid display, on average one peptide per phage particle; also called PHPEP190; pIX-190; not shown: M13 phage coat protein pIX (MSVL...)
B21: SEQ ID NO: 17 (S15 hit, pIX phage) (peptide)
chain: GGGPIDDESLPVLYCVTSGGGSGGSGG
notes: as for B1
B22: SEQ ID NO: 11 (S15 hit, pIX phage) (peptide)
chain: GGGELGLPTLLCWPTDTLGGGSGGSGG
notes: as for B1
B23: SEQ ID NO: 20 (S15 hit, pIX phage) (peptide)
chain: GGGTVFTLPELVCVVAGTGGGSGGSGG
notes: as for B1
B24: SEQ ID NO: 18 (S15 hit, pIX phage) (peptide)
chain: GGGPIFSSLPVLYCTSQLGGGSGGSGG
notes: as for B1
B25: SEQ ID NO: 14 (S15 hit, pIX phage) (peptide)
chain: GGGHVSLQSLPELICVVSGGGSGGSGG
notes: as for B1
B26: SEQ ID NO: 15 (S15 hit, pIX phage) (peptide)
chain: GGGNWFSLPTLLCFPLNPGGGSGGSGG
notes: as for B1
B27: SEQ ID NO: 21 (S15 hit, pIX phage) (peptide)
chain: GGGLPDLICAVDSGTSGAGGGSGGSGG
notes: as for B1
B28: SEQ ID NO: 10 (S15 hit, pIX phage) (peptide)
chain: GGGYRLFVDESIFFCTRLGGGSGGSGG
notes: as for B1
B29: SEQ ID NO: 19 (S15 hit, pIX phage) (peptide)
chain: GGGGADTLPDLLCWESSLGGGSGGSGG
notes: as for B1
B30: SEQ ID NO: 16 (S15 hit, pIX phage) (peptide)
chain: GGGSTITSLPTLQCWPILGGGSGGSGG
notes: as for B1
B31: SEQ ID NO: 12 (S15 hit, pIX phage) (peptide)
chain: GGGVSGILPILVCHPAATGGGSGGSGG
notes: as for B1
B32: SEQ ID NO: 46 (S20 hit, pIX phage) (peptide)
chain: GGGYICTPSDIDSWYICYLGGGSGGSGG
notes: as for B1
B33: SEQ ID NO: 47 (S20 hit, pIX phage) (peptide)
chain: GGGSVCVGTAFPGWMVCGPGGGSGGSGG
notes: as for B1
B34: SEQ ID NO: 43 (S20 hit, pIX phage) (peptide)
chain: GGGPTCDSATRRVLTICADGGGSGGSGG
notes: as for B1
B35: SEQ ID NO: 44 (S20 hit, pIX phage) (peptide)
chain: GGGWMCFLEGYGASLMCQCGGGSGGSGG
notes: as for B1
B36: SEQ ID NO: 49 (S20 hit, pIX phage) (peptide)
chain: GGGLLCATTSFRDWFVCFTGGGSGGSGG
notes: as for B1
B37: SEQ ID NO: 45 (S20 hit, pIX phage) (peptide)
chain: GGGDSCCSFLTDGTVVCSLGGGSGGSGG
notes: as for B1
B38: P177 phage (S16, pIX) (peptide)
chain: GGGDACTMVFLWCSLGGGSGGSGG
notes: pIX phagemid display; also called PP177; not shown: M13 phage coat protein pIX (MSVL...)
B39: P178 phage (S17, pIX) (peptide)
chain: GGGRWCYFWWITICELGGGSGGSGG
notes: pIX phagemid display; also called PP178; not shown: M13 phage coat protein pIX (MSVL...)
B40: P190-MMB construct 4314 (Fc fusion)
chain: GGDPCTWEVWGRECLQGGGSCPPCPAPEAAGGPSVFLFPPKPKDTLMISRTPEVTCVVVDVSQEDPEVQFNWYVDGVEVHNAKTKPREEQFNSTYRVVSVLTVLHQDWLNGKEYKCKVSNKGLPSSIEKTISKAKGQPREPQVYTLPPSQEEMTKNQVSLTCLVKGFYPSDIAVEWESNGQPENNYKTTPPVLDSDGSFFLYSRLTVDKSRWQEGNVFSCSVMHEALHNHYTQKSLSLSLGK
notes: GG, P190, Flex, human IgG4 hinge-CH2-CH3 with two Leu to Ala changes

One experiment deals with T1, sEGFR-MMB (dimeric sEGFR mimetibody) (human).
T1 construct: Disulfide linked homodimer, expressed in 293E cells; also called sEGFR-Fc
T1 sequence (chain, as listed by the source limits assumed): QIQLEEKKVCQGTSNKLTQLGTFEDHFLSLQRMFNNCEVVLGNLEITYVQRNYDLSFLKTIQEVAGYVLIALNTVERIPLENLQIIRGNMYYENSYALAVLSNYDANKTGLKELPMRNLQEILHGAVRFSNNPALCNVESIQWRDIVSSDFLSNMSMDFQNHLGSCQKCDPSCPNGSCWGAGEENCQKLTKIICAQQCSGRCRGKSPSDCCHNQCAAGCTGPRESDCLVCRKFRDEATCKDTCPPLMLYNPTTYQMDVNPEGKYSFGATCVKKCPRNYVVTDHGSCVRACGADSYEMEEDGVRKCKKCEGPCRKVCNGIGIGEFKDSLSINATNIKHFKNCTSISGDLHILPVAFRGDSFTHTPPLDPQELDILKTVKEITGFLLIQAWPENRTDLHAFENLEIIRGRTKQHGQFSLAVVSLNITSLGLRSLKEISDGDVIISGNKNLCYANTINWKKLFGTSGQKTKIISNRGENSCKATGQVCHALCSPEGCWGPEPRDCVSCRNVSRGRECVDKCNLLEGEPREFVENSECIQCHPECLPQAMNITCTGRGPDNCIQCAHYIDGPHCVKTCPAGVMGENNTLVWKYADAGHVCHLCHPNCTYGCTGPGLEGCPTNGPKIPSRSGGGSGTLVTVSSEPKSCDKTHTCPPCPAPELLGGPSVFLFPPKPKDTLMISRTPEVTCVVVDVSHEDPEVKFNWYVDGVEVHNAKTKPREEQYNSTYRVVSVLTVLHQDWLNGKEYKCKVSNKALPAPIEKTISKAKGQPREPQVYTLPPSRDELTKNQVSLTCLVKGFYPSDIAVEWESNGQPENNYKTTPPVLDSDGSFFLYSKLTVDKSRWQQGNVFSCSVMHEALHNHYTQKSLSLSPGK
Description: phage ELISA on coated sEGFR-MMB, chemiluminescence (background typically <200 units). A general note: An ELISA detects its analyte on a solid surface through an enzyme-linked reagent.
The molecule B1 gave an ELISA signal of 2580 units.
Same read-out and setting: the result for B2 reads 8810 units; that for B3, 3350 units; that for B4, 1290 units.
Molecule B5 had an ELISA signal of 14000 units.

For a further experiment, the target named is T2, biotinylated sEGFR-His6 (human, UniProt P00533 25-645, biotinylated (reagent and sites not stated)).
T2 construct: Captured on streptavidin in the ELISA; also called b-sEGFR-His; b-sEGFR-His6
Description: phage ELISA, luminescence; biotinylated receptor captured on streptavidin [panel C].
Take B6: the binding result was “no binding”.

For a further experiment, the target named is T3, Control-MMB (CNTO 360) (Homo sapiens (Human), UniProt P0DOX5 111-449 = IgG part).
T3 construct: Described as human IgG1 heavy chain dimer absent the variable and most of the CH1 domains; also called blank mimetibody scaffold protein
The experiment is described as follows: phage ELISA, luminescence; Control-MMB coated on the wells [panel A].
On to B6, for which the binding result is reported as “no binding”.
Same read-out and setting: the result for B5 reads “no binding”.

A further experiment deals with T1, sEGFR-MMB (dimeric sEGFR mimetibody). The experiment is described as follows: phage ELISA on coated sEGFR-MMB, chemiluminescence (background typically <200 units). The source holds these as a separate data set.
B7 came in with an ELISA signal of 9110 units.
Still for that read-out and setting: for B8 the value was 37900 units; for B9, 35300 units; for B10, 4750 units.
For B11, the ELISA signal worked out at 17100 units.
Still for that read-out and setting: for B12 the value was 6380 units; for B13, 3200 units.
On the same count and under the same terms, for B14 the value was 30700 units; for B15, 22000 units; for B16, 13300 units.
Same read-out and setting: for B17 the value was 19800 units; for B18, 53200 units; for B19, 31500 units.

A further experiment deals with T3, Control-MMB (CNTO 360). The experiment is described as follows: phage ELISA, protein coated at 5 ug per mL.
For B20, the binding result was “no binding”.

The next experiment addresses Streptavidin alone. Description: phage ELISA, luminescence; streptavidin-coated wells without receptor [panel C].
Description: Confirmatory Phage ELISA. Phage were amplified in XL-1 Blue host cells and purified by precipitation with 6% polyethylene glycol-8000/0.5 M sodium chloride. The precipitated phage were resuspended in phosphate-buffered saline in a volume that was 1/100th the original culture volume. […] The binding reaction was incubated for 1 hr at room temperature, and then bound phage were detected with anti-M13/HRP as above. For ELISAs with biotinylated receptors, streptavidin at 5 μg/ml was coated in the wells overnight at 4° C. […] The wells were rinsed with TBS-T and then blocked with Starting Block. Bound phage were washed and detected with anti-M13/HRP as described above.
With B6, the binding result is “no binding”.
On the same count and under the same terms, for B5 the value was “no binding”.

Another experiment concerns the target T1, sEGFR-MMB (dimeric sEGFR mimetibody). Description: phage ELISA on coated sEGFR-MMB, chemiluminescence (background typically <200 units). This is another data set of the same source.
B21 showed an ELISA signal of 1780 units.
The same measure, in the same setting: the result for B22 reads 9380 units.
B23 came in with an ELISA signal of 1520 units.
Still for that read-out and setting: for B24 the value was 1420 units.
The same measure, in the same setting: for B6 the value was 6790 units; for B25, 1360 units.
Still for that read-out and setting: for B26 the value was 3670 units; for B27, 1160 units.
B28 returned an ELISA signal of 3080 units.
On the same count and under the same terms, the result for B29 reads 5720 units; that for B30, 13300 units.
With B31, the ELISA signal came to 1110 units.

For the next experiment the target is unchanged. Described as above. The source holds these as a separate data set.
For the molecule B32, the ELISA signal came out at 6620 units.
Same read-out and setting: for B33 the value was 4770 units.
Still for that read-out and setting: the result for B34 reads 5420 units.
B35 displayed an ELISA signal of 4800 units.
In the case of B36, the ELISA signal came to 4510 units.
Same read-out and setting: for B37 the value was 9540 units.

Another experiment addresses T4, Human extracellular EGFR-His6 (sEGFR-His6) (human, UniProt P00533 25-645).
T4 construct: Monomer, expressed in HEK293E cells, glycosylated; also called sEGFR-6×His; monomeric sEGFR
Description: phage ELISA, protein coated at 5 ug per mL, chemiluminescence.
Description: (§1) The plates were held overnight at room temperature, washed twice with TBST (0.5M Tris Base, 9% NaCl, 0.05% tween, pH 7.6), and loaded with 200 μL per well of Starting Block (Pierce). […] The plates were held at room temperature for 1.5 hours for blocking. Plates were then washed twice with TBST and phage were added. The phage solutions were crude phage supernatant from overnight cultures diluted four-fold with Starting Block. After a one-hour incubation, the plates were washed thrice with TBST and 100 μL of a 1:5000 dilution of phage binding antibody conjugate (a-M13-HRP) was added to the wells. […] After a one-hour incubation the plates were washed five times with TBST, 100 μL of POD (BM Chemiluminescence ELISA substrate; Roche Applied Science) was added, and chemiluminescene recorded.
For the molecule B20, the “Relative Signal” value turned out to be 6.

For a further experiment, the target named is T1, sEGFR-MMB (dimeric sEGFR mimetibody). Described as above.
Description: as §1
Take B20: the “Relative Signal” value was 3940.

Another experiment shares this target. Description: phage ELISA on coated sEGFR-MMB, chemiluminescence (background typically <200 units). The source holds these as a separate data set.
Description: The protein solution was removed and wells were rinsed twice with Tris-Buffered Saline containing 0.05% Tween-20 (TBS-T) using a plate washer (Embla). The wells were blocked with Starting Block in TBS for 1 hr at room temperature and rinsed twice with TBS-T. An equal volume of phage supernatant and Starting Block in TBS were incubated in the wells for 1 hr at room temperature, and the wells were rinsed five times with TBS-T. Anti-M13/horseradish peroxidase conjugate (Amersham), diluted 1:5000 in Starting Block in TBS, was added into the wells and incubated for 1 hour at room temperature, and then the wells were rinsed five times with TBS-T. Finally, chemiluminescent peroxidase substrate (Roche) was added to the wells, and chemiluminescence was measured on a Tecan plate reader.
B38 gave an ELISA signal of 8660 units.
On to B39, for which the ELISA signal stood at 7910 units.

A further experiment has as its target T4, Human extracellular EGFR-His6 …. Description: phage ELISA, coated sEGFR-His6.
Description: as §1
Take B20: the binding result was “no binding”.

The target in a further experiment is T1, sEGFR-MMB (dimeric sEGFR mimetibody). The experiment is described as follows: ELISA, luminescence; sEGFR-MMB immobilized, MMB titrated.
With B40, the binding result is given as “binds”.

These data come from patent publication US20100098681A1 (Janssen / Centocor, published 2010).
